Results as given in the MegaScale stability set (Tsuboyama et al. 2023).

B1: EEHEE_rd4_0003 (parent)
chain: KKVTINGVEIKFNNPEEAVKFALELAKRLNLRIEFHGDQIKIE

Variants of: B1
Test: folding stability dG (cDNA display proteolysis); higher = more stable
Conditions: PBS, room temperature

Folding stability dG [kcal/mol] of substitutions, site by site:
T4: M 2.74; H 2.26; C 3.48; N 2.21; Y 3.11; P 1.76; A 2.02; D 1.7; Q 2.17; E 1.98; G 1.61; V 2.94; F 3.25; R 2.18; L 2.95; S 2.38; I 3; W 3.01; K 2.29
V3: M 2.12; G 1.85; R 1.95; Q 1.59; F 2.27; E 1.86; L 2.39; S 1.46; A 1.67; P 2.06; Y 2.26; H 1.86; W 2.29; T 1.76; I 2.48; D 1.7; N 1.7; K 1.57
G7: K 2.09; L 2.42; V 2.45; N 2.11; W 2.54; D 1.89; I 2.84; R 1.87; S 1.85; C 3.05; F 2.37; Q 1.96; A 1.95; H 1.89; E 1.78; Y 2.23; T 1.98; M 2.2; P 2.01
I5: H 1.93; K 1.54; A 1.71; C 3.46; T 1.59; N 1.47; M 2.07; V 2.47; P 1.79; R 1.58; D 1.54; G 1.72; S 1.46; L 2.39; F 2.8; Q 1.66; Y 2.71; E 1.56; W 2.83
V8: K 2.4; Y 2.82; A 2.03; W 2.75; I 2.74; H 2.53; D 1.65; Q 2.25; R 2.56; L 2.51; E 1.99; T 2.24; P 1.6; F 2.71; S 1.97; M 2.51; N 2; G 1.78; C 3.55
K1: Q 2.5; T 3.14; E 2.09; A 2.84; Y 3.44; P 2.75; M 3.33; H 2.89; F 3.5; N 2.67; S 2.83; R 2.79; L 3.15; D 2.23; G 2.6; W 3.51; I 3.3; V 3.25
N6: Q 2.14; W 3.34; S 2.11; E 1.91; V 2.52; L 2.87; R 2.25; C 4.2; F 3.23; G 2.5; Y 2.75; K 2.17; M 2.65; A 2.41; T 2.01; I 2.41; H 2.45; P 1.57; D 2.25
K2: G 2.2; E 2.06; D 1.93; T 3.4; Y 2.82; S 2.92; C 3.4; F 2.8; Q 2.36; L 2.84; H 2.46; N 2.48; M 2.83; A 2.46; I 3.41; P 2.2; R 2.78; W 2.88; V 3.28
E9: I 2.85; A 2.4; D 2.3; T 2.98; G 2.12; R 2.36; V 2.94; L 2.78; H 2.46; P 2.3; F 2.53; K 2.08; N 2.19; M 2.62; S 2.58; Q 2.46; C 3.54
